Experiments:
[1] = tested on: T1, His6-SUMO-MucR2 (Sinorhizobium fredii CCBAU45436 (SF45436)), ORF:a672ea6f; experiment: EMSA; conditions: EMSA: 25 mM Tris pH 7.5, 100 mM KCl, 5 mM MgCl2, 5% glycerol, 0.05% dodecyl maltoside, 0.5 mg/mL BSA, 0.1 mg/mL sonicated salmon sperm DNA; room temperature …
T1 sequence: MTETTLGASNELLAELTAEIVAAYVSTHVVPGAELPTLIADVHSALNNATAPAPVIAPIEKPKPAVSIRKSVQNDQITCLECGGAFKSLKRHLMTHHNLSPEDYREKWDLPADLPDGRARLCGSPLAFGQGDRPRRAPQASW

[2] = tested on: T2, His6-SUMO-MucR1 (Sinorhizobium fredii CCBAU45436 (SF45436)), ORF:2d010df8; experiment: EMSA; conditions: EMSA: 25 mM Tris pH 7.5, 100 mM KCl, 5 mM MgCl2, 5% glycerol, 0.05% dodecyl maltoside, 0.5 mg/mL BSA, 0.1 mg/mL sonicated salmon sperm DNA; room temperature …
T2 sequence: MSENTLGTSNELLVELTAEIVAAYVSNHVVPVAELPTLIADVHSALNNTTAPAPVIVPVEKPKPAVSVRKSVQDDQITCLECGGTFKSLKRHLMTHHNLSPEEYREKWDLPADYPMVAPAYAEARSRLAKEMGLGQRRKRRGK

## CATATTAGATTCGGAAGGACCGACGACGCCCCTCGATCGCTGCCAGTCCACTGACGATTGTTTTGAAGTGTTCAGCTTCCTGGAGATATAACTTCCAAAAGCCGAAATAAAGTTTGGATCATCTTTGATTTTATACAGTTCTCTGCTACTGCCAGAGCGTCTCCGACTTGGTGCATTTTAGCAACAGGCGTCATTCGAAAGTAAAGCTCACTCATCTATATTCGAGCGATTGGCGGCATTGAAGGCACAG (double strand) [visN promoter probe (250 bp)]
[1]
  binding: no binding
[2]
  binding: binds

Source: paper PMC8857273
